The values below come from patent US20140221611A1.

For assay [1], the target named is REFACTO® factor VIII-like polypeptide (amino acids 1-743 and 1638 through 2332 of human factor VIII) (human) (UniProt P00451). Description: phage ELISA. A general note: In an ELISA, binding on a coated surface is turned into a signal by an enzyme label.
For assay [2] the target is unchanged. The assay is described as follows: affinity column of immobilised peptide; fractions by RP-HPLC.
Assay [3] has the same target. Description: affinity column of immobilised peptide; fractions by factor VIII activity assay.
For assay [4] the target is unchanged. Description: phage ELISA, anti-M13-HRP.

Positions of bridges follow the written chain, without caps; N, C: chain ends. No end group written: not given here. *: point of attachment. NHNH2 = NN*

Sequence of REFACTO® factor VIII-like polypeptide (amino acids 1-743 and 1638 through 2332 of human factor VIII) (human) (P00451 20-762, chain 1 of 2): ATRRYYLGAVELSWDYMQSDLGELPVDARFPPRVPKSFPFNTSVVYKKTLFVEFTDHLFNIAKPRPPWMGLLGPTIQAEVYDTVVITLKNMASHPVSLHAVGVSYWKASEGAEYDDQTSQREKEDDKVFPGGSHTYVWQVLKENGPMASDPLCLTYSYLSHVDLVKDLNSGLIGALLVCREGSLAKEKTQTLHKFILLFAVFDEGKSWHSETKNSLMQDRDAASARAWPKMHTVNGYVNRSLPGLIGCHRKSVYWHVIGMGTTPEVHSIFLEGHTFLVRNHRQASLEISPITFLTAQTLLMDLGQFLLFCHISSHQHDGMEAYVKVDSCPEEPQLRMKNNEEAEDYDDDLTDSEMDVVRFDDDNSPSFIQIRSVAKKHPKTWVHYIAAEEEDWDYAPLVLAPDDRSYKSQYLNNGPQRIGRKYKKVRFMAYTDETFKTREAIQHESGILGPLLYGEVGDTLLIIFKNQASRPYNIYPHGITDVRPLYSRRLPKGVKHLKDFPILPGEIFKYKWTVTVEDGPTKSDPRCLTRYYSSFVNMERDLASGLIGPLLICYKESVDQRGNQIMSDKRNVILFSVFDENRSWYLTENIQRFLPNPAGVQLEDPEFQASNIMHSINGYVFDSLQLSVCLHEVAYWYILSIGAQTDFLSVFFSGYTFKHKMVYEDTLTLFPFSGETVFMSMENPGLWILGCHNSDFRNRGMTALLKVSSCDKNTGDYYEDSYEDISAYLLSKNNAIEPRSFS
Sequence of REFACTO® factor VIII-like polypeptide (amino acids 1-743 and 1638 through 2332 of human factor VIII) (human) (P00451 1657-2351, chain 2 of 2): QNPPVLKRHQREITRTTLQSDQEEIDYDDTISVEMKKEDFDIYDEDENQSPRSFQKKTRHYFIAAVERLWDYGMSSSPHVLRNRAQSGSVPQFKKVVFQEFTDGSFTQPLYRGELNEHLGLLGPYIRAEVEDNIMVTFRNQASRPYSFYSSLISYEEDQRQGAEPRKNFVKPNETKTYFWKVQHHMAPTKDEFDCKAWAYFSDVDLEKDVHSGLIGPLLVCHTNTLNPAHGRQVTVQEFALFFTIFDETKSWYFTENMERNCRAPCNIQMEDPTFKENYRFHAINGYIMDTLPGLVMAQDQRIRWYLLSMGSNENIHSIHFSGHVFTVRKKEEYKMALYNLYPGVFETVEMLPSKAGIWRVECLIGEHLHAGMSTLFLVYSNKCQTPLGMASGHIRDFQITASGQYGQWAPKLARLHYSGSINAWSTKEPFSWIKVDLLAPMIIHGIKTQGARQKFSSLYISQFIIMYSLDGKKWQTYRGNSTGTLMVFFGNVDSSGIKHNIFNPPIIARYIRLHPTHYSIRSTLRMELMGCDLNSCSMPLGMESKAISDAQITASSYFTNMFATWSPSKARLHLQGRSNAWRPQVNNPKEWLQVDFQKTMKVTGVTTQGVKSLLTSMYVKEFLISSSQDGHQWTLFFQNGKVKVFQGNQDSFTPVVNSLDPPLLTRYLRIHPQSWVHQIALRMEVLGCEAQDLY

For FCWVFAFDHCH [TN9/1 isolate … (SEQ ID NO: 71)], the R (ratio of the ELISA score with target present to the ELISA score without target) in assay [1] was 24.

Take AEGTGDFHCIGVWFCLHDPGPEGGGS-NHNH2 (disulfide 9-15 (inferred)) [Affinity ligand CS-455]: in assay [2], the % recovery in Elution A is 1.4%, the % recovery in Elution B was 0%, the % recovery in Flow stood at 65.8% and the % recovery in pH 2 turned out to be 0%. In addition, in assay [3], the % recovery in Elution A was 1.3% and the % recovery in Flow was determined as 61.6%.

In assay [2], AEGTGDFCWVFPFQHCADPGPEGGGS-NHNH2 (disulfide 8-16 (inferred)) [Affinity ligand CS-459] returned a % recovery in Elution A of 42.1%, a % recovery in Elution B of 0%, a % recovery in Flow of 1.6% and a % recovery in pH 2 of 0%. In assay [3], this molecule yielded a % recovery in Elution A of 31.2% and a % recovery in Flow of 6.4%.

As to FCWVHPFAHCL [TN9 isolate 02 (phage-displayed peptide, SEQ ID NO: 23)], the ELISA signal in assay [4] amounted to 0.2 OD630.

For the molecule FCWVFPFQHCA [TN9 isolate 09 (phage-displayed peptide, SEQ ID NO: 29)], in assay [1], the R (ratio of the ELISA score with target present to the ELISA score without target) came to 24. Besides, in assay [4], the ELISA signal was 1.1 OD630.

Take HLCFAWFRPCDA [TN8 isolate 12 (phage-displayed peptide, SEQ ID NO: 17)]: the R (ratio of the ELISA score with target present to the ELISA score without target) in assay [1] was 8. Further, the ELISA signal in assay [4] stood at 0.4 OD630.

HACGSWFRPCHA [TN8 isolate 07 (phage-displayed peptide, SEQ ID NO: 15)]: in assay [1], the R (ratio of the ELISA score with target present to the ELISA score without target) was 6. The ELISA signal in assay [4] was determined as 0.4 OD630.

Take HLCGAWFRPCDA [TN8 isolate 02 (phage-displayed peptide, SEQ ID NO: 16)]: the R (ratio of the ELISA score with target present to the ELISA score without target) in assay [1] stood at 6. Also, the ELISA signal in assay [4] came out at 0.4 OD630.

HGCGAWFRPCHA [TN8 isolate 01 (phage-displayed peptide, SEQ ID NO: 18)] showed an ELISA signal in assay [4] of 0.2 OD630.

Consider HPCGSWLRPCLH [TN8 isolate 10 (phage-displayed peptide, SEQ ID NO: 10)], for which the R (ratio of the ELISA score with target present to the ELISA score without target) in assay [1] amounted to 16. Besides, in assay [4], the ELISA signal came to 1 OD630.

FCWVFPFHHCF [TN9 isolate 06 (phage-displayed peptide, SEQ ID NO: 30)]: in assay [1], the R (ratio of the ELISA score with target present to the ELISA score without target) amounted to 6. Further, in assay [4], the ELISA signal worked out at 0.3 OD630.

Take FCWVFPFNHCS [TN9 isolate 12 (phage-displayed peptide, SEQ ID NO: 28)]: the R (ratio of the ELISA score with target present to the ELISA score without target) in assay [1] was 18. In assay [4], the ELISA signal came out at 1 OD630.

In assay [2], AEGTGDFCWVFPFHHCFDPGPEGGGS-NHNH2 (disulfide 8-16 (inferred)) [Affinity ligand CS-460] registered a % recovery in Elution A of 28.8%, a % recovery in Elution B of 0%, a % recovery in Flow of 24.6% and a % recovery in pH 2 of 0%. In addition, in assay [3], the % recovery in Elution A was 0% and the % recovery in Flow was found to be 28.4%.

On to PHCNWLFPCSL [TN7 isolate D03 (phage-displayed peptide, SEQ ID NO: 6)], for which the ELISA signal in assay [4] worked out at 0.2 OD630.

On to FHCIGVWFCLH [TN7 isolate A09 (phage-displayed peptide, SEQ ID NO: 8)], for which, in assay [4], the ELISA signal amounted to 0.1 OD630.

With FCWVFNWVHCD [TN9/1 isolate … (SEQ ID NO: 75)], in assay [1], the R (ratio of the ELISA score with target present to the ELISA score without target) is 14.

Turning to HPCGSWLHPCAA [TN8 isolate 04 (phage-displayed peptide, SEQ ID NO: 12)], the R (ratio of the ELISA score with target present to the ELISA score without target) in assay [1] was 6. For the same molecule, the ELISA signal in assay [4] was 0.3 OD630.

Regarding AEGTGDFGCSWLFPCPFDPGPEGGGS-NHNH2 (disulfide 9-15 (inferred)) [Affinity ligand CS-456], in assay [2], the % recovery in Elution A is 44.8%, the % recovery in Elution B came out at 0%, the % recovery in Flow turned out to be 3.4% and the % recovery in pH 2 amounted to 0%. Also, in assay [3], the % recovery in Elution A was determined as 43% and the % recovery in Flow was determined as 4.8%.

In the case of HPCGSWFNPCAH [TN8 isolate 02 (phage-displayed peptide, SEQ ID NO: 13)], the R (ratio of the ELISA score with target present to the ELISA score without target) in assay [1] amounted to 8. In addition, the ELISA signal in assay [4] stood at 0.3 OD630.

For the molecule HRCGSWLHPCLA [TN8 isolate 11/G10 (phage-displayed peptide, SEQ ID NO: 21)], the R (ratio of the ELISA score with target present to the ELISA score without target) in assay [1] amounted to 6. This molecule showed an ELISA signal in assay [4] of 0.3 OD630.

In the case of AEGTGDFCWVFAFDHCHDPGPEGGGS-NHNH2 (disulfide 8-16 (inferred)) [Affinity ligand CS-458], in assay [2], the % recovery in Elution A came to 54.3%, the % recovery in Elution B came to 0%, the % recovery in Flow came to 1.8% and the % recovery in pH 2 is 0%. In assay [3], this molecule registered a % recovery in Elution A of 55.6% and a % recovery in Flow of 1.4%.

In the case of FCHVFNFVHCS [TN9 isolate 01 (phage-displayed peptide, SEQ ID NO: 31)], the R (ratio of the ELISA score with target present to the ELISA score without target) in assay [1] came to 8. For the same molecule, the ELISA signal in assay [4] came out at 0.5 OD630.

Consider FCWVFPFNHCD [TN9 isolate 02 (phage-displayed peptide, SEQ ID NO: 27)], for which the R (ratio of the ELISA score with target present to the ELISA score without target) in assay [1] worked out at 8. The same molecule displayed an ELISA signal in assay [4] of 0.4 OD630.

Molecule HPCGAWFNPCPR [TN8 isolate 01 (phage-displayed peptide, SEQ ID NO: 19)] yielded an ELISA signal in assay [4] of 0.2 OD630.

As for FCWVFNFSHCS [TN9 isolate 03 (phage-displayed peptide, SEQ ID NO: 26)], the R (ratio of the ELISA score with target present to the ELISA score without target) in assay [1] is 24. For the same molecule, the ELISA signal in assay [4] was 1.1 OD630.

On to FCHVFHFSHCD [TN9 isolate 01 (phage-displayed peptide, SEQ ID NO: 24)], for which, in assay [4], the ELISA signal came to 0.2 OD630.

On to AEGTGDHPCGSWLRPCLHDPGPEGGGS-NHNH2 (disulfide 9-16 (inferred)) [Affinity ligand CS-453], for which, in assay [2], the % recovery in Elution A was found to be 43.2%, the % recovery in Elution B stood at 0%, the % recovery in Flow stood at 0% and the % recovery in pH 2 came to 0%. In assay [3], the % recovery in Elution A was found to be 26.4% and the % recovery in Flow was 0%.

With RGCGSWLRPCLD [TN8 isolate 05 (phage-displayed peptide, SEQ ID NO: 11)], the ELISA signal in assay [4] was 0.2 OD630.

For RLCSWISPCSA [TN7 isolate D04 (phage-displayed peptide, SEQ ID NO: 7)], the R (ratio of the ELISA score with target present to the ELISA score without target) in assay [1] is 6. In assay [4], this molecule registered an ELISA signal of 0.3 OD630.

FCWVFQFRHCH [TN9/1 isolate … (SEQ ID NO: 77)]: the R (ratio of the ELISA score with target present to the ELISA score without target) in assay [1] came to 8.

FCHVFPFLHCD [TN9 isolate 11 (phage-displayed peptide, SEQ ID NO: 32)] returned an ELISA signal in assay [4] of 0.2 OD630.

As to RLCSWVSPCSA [TN7 isolate C5/G10 (phage-displayed peptide, SEQ ID NO: 9)], the R (ratio of the ELISA score with target present to the ELISA score without target) in assay [1] is 10. The same molecule registered an ELISA signal in assay [4] of 0.5 OD630.

With HPCGSWFRPCFH [TN8 isolate 02 (phage-displayed peptide, SEQ ID NO: 14)], the R (ratio of the ELISA score with target present to the ELISA score without target) in assay [1] worked out at 16. In assay [4], the ELISA signal turned out to be 0.7 OD630.

With HPCGAWLRPCYN [TN8 isolate 08 (phage-displayed peptide, SEQ ID NO: 20)], in assay [1], the R (ratio of the ELISA score with target present to the ELISA score without target) was 20. The same molecule yielded an ELISA signal in assay [4] of 1 OD630.

As to HSCGSWLFPCFA [TN7 isolate A06 (phage-displayed peptide, SEQ ID NO: 4)], in assay [1], the R (ratio of the ELISA score with target present to the ELISA score without target) was found to be 10. Besides, the ELISA signal in assay [4] was 0.5 OD630.

In the case of AEGTGDHLCGAWFRPCDADPGPEGGGS-NHNH2 (disulfide 9-16 (inferred)) [Affinity ligand CS-454], in assay [2], the % recovery in Elution A was found to be 45.1%, the % recovery in Elution B turned out to be 0%, the % recovery in Flow came to 2.5% and the % recovery in pH 2 was found to be 0%. In assay [3], this molecule came in with a % recovery in Elution A of 42.4% and a % recovery in Flow of 2.2%.

Consider FGCSWLFPCPF [TN7 isolate A08 (phage-displayed peptide, SEQ ID NO: 5)], for which, in assay [1], the R (ratio of the ELISA score with target present to the ELISA score without target) came out at 8. In assay [4], the ELISA signal stood at 0.4 OD630.
